The text below walks through data of article PMC7820290.

Among the targets are N175-419 (SARS-CoV-2) (UniProt P0DTC9); N49-246 (SARS-CoV-2) (UniProt P0DTC9); N1-246 (SARS-CoV-2) (UniProt P0DTC9); N175-364 (SARS-CoV-2) (UniProt P0DTC9).
Experiment in all cases: co-condensation microscopy
The target in data set [1] is SARS-CoV-2 nucleocapsid (N), wild type (SARS-CoV-2) (UniProt P0DTC9).

As for “GGGAUUAAAGGUUUAUACCUUCCCAGGUAACAAACCAACCAACUUUCGAUCUCUUGUAGAUCUGUUCUCUAAACGAACUUUAAAAUCUGUGUGGCUGUCACUCGGCUGCAUGCUUAGUGCACUCACGCAGUAUAAUUAAUAACUAAUUACUGUCGUUGACAGGACACGAGUAACUCGUCUAUCUUCUGCAGGCUGCUUACGGUUUCGUCCGUGUUGCAGCCGAUCAUCAGCACAUCUAGGUUUCGUCCGGGUGUGACCGAAAGGUAAG [UTR265]”, the binding signal (% fluorescence in condensates) with N175-419 (SARS-CoV-2) amounted to 9.3; in the data set with N49-246 (SARS-CoV-2), 18; with N1-246 (SARS-CoV-2), 13; in the data set with N175-364 (SARS-CoV-2) it was 8.4; in data set [1], 35.
